From paper PMC3499301 (mAbs, 2012)

Columns and labels:
[1] = molecular target: the molecule itself
soluble human Tie2-Fc = soluble human Tie2-Fc (human, UniProt Q02763); assay: ELISA
Sequence of soluble human Tie2-Fc (Q02763 23-748): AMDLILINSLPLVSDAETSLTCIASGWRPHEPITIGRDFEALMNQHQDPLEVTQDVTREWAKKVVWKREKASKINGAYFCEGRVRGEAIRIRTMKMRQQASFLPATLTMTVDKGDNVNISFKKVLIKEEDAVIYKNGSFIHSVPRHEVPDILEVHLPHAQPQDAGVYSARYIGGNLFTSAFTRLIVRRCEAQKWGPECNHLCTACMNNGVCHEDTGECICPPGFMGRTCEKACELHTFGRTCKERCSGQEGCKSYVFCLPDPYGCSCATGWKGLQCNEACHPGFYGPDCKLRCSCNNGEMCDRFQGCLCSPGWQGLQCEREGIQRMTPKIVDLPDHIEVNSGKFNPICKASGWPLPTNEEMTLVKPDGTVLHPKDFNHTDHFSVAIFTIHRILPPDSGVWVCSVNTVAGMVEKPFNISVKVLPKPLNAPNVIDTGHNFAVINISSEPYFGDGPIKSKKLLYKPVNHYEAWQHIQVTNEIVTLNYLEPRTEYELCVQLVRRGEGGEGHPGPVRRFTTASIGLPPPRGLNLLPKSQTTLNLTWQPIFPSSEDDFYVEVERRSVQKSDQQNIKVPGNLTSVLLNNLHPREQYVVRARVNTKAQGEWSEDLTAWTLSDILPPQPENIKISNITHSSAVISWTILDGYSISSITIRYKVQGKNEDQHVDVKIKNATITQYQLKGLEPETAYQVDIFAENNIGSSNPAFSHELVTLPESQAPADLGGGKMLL

Row | binding result (soluble human Tie2-Fc) | Binder | stoichiometry N [1]
1 | – | His-tagged Ang2 prepared in-house (Zyngenia) (ligand) YNNFRKSMDSIGKKQYQVQHGSCSYTFLLPEMDNCRSSSSPYVSNAVQRDAPLEYDDSVQRLQVLENIMENNTQWLMKLENYIQDNMKKEMVEIQQNAVQNQTAVMIEIGTNLLNQTAEQTRKLTDVEAQVLNQTTRLELQLLEHSLSTNKLEKQILDQTSEINKLQDKNSFLEKKVLAMEDKHIIQLQSIKEEKDQLQVLVSKQNSIIEELEKKIVTATVNNSVLQKQQHDLMETVNNLLTMMSTSNSAKDPTVAKEEQISFRDCAEVFKSGHTTNGIYTLTFPNSTEEIKAYCDMEAGGGGWTIIQRREDGSVDFQRTWKEYKVGFGNPSGEYWLGNEFVSQLTNQQRYVLKIHLKDWEGNEAYSLYEHFYLSSEELNYRIHLKGLTGTAGKISSISQPGNDFSTKDGDNDKCICKCSQMLTGGWWFDACGPSNLNGMYYPQRQNTNKFNGIKWYYWKGSGYSLKATTMMIRPADF | 2
2 | binds | Recombinant human Ang2 (R&D Systems) (ligand) YNNFRKSMDSIGKKQYQVQHGSCSYTFLLPEMDNCRSSSSPYVSNAVQRDAPLEYDDSVQRLQVLENIMENNTQWLMKLENYIQDNMKKEMVEIQQNAVQNQTAVMIEIGTNLLNQTAEQTRKLTDVEAQVLNQTTRLELQLLEHSLSTNKLEKQILDQTSEINKLQDKNSFLEKKVLAMEDKHIIQLQSIKEEKDQLQVLVSKQNSIIEELEKKIVTATVNNSVLQKQQHDLMETVNNLLTMMSTSNSAKDPTVAKEEQISFRDCAEVFKSGHTTNGIYTLTFPNSTEEIKAYCDMEAGGGGWTIIQRREDGSVDFQRTWKEYKVGFGNPSGEYWLGNEFVSQLTNQQRYVLKIHLKDWEGNEAYSLYEHFYLSSEELNYRIHLKGLTGTAGKISSISQPGNDFSTKDGDNDKCICKCSQMLTGGWWFDACGPSNLNGMYYPQRQNTNKFNGIKWYYWKGSGYSLKATTMMIRPADF | –
